One block for each substance: values may come before it.
Columns and labels:
[1] = biological target: neonatal Fc receptor (FcRn), endogenous mouse receptor in placenta / syncytiotrophoblast cells (mouse) (UniProt Q61559); experiment: cell-based or functional assay
[2] = biological target: recombinant human FcRn, biotinylated, immobilized on sensor chip (human) (UniProt P55899); experiment: SPR (Biacore 2000), biotinylated human FcRn immobilized, analyte 0.78-200 nM, pH 5.4, 25 C, Langmuir fit with drifting baseline
[3] = biological target: recombinant mouse FcRn, biotinylated, immobilized on sensor chip (mouse) (UniProt Q61559); experiment: SPR (Biacore 2000), biotinylated mouse FcRn immobilized, analyte 0.78-200 nM, pH 5.4, 25 C, Langmuir fit with drifting baseline
[4] = biological target: recombinant mouse FcRn, biotinylated, immobilized on sensor chip (mouse) (UniProt Q61559); experiment: SPR (Biacore), immobilized biotinylated mouse FcRn, analyte 0.78-100 nM, pH 6.4; Chi2 0.3
[5] = biological target: recombinant mouse FcRn, biotinylated, immobilized on sensor chip (mouse) (UniProt Q61559); experiment: SPR (Biacore), immobilized biotinylated mouse FcRn, analyte 0.78-100 nM, pH 5.4; Chi2 10.1
[6] = biological target: recombinant mouse FcRn, biotinylated, immobilized on sensor chip (mouse) (UniProt Q61559); experiment: SPR (Biacore), immobilized biotinylated mouse FcRn, analyte 0.78-100 nM, pH 5.4; Chi2 2.5
[7] = biological target: recombinant mouse FcRn, biotinylated, immobilized on sensor chip (mouse) (UniProt Q61559); experiment: SPR (Biacore), immobilized biotinylated mouse FcRn, analyte 0.78-100 nM, pH 6.4; Chi2 3.9

diabetes-free offspring after IgG pre-treatment of pregnant mice 24 h before PPI-Fc (% diabetes-free mice) [1]: 49
Kd [2]: 6.4 nM
koff [2]: 0.00492 s⁻¹
kon [2]: 765000 M⁻¹ s⁻¹
Kd [3]: 1.5 nM
koff [3]: 0.00248 s⁻¹
kon [3]: 1.63e+06 M⁻¹ s⁻¹
Substance: anti-CD20 rituximab monoclonal antibody (Roche), used as human IgG1 control

Kd [4]: 52.9 nM
koff [4]: 0.0016 s⁻¹
kon [4]: 30000 M⁻¹ s⁻¹
Kd [5]: 8.53 nM
koff [5]: 0.00218 s⁻¹
kon [5]: 256000 M⁻¹ s⁻¹
Substance: A2Fc (A2 domain of FVIII fused to mouse Fc gamma 1) (from UniProt P00451 392-759) (Fc fusion)

Kd [2]: 15.3 nM
koff [2]: 0.00318 s⁻¹
kon [2]: 208000 M⁻¹ s⁻¹
Kd [3]: 5.4 nM
koff [3]: 0.00159 s⁻¹
kon [3]: 292000 M⁻¹ s⁻¹
Substance: PPI2-Fc fusion protein (mouse preproinsulin 2 fused to the CH2-CH3 Fc domain of human IgG1) (from UniProt P01326 25-110)

Kd [6]: 3.7 nM
koff [6]: 0.0011 s⁻¹
kon [6]: 292000 M⁻¹ s⁻¹
Kd [7]: 53 nM
koff [7]: 0.00347 s⁻¹
kon [7]: 65000 M⁻¹ s⁻¹
Substance: C2Fc (C2 domain of FVIII fused to mouse Fc gamma 1) (from UniProt P00451 2192-2351) (Fc fusion)
